In the test the target is recombinant ACE2 protein (coated plate of the RayBio COVID-19 Spike ACE2 binding assay kit II) (UniProt P0DTC2). Nature of the test: ELISA; […] ([…], in PBS), 2 h at room temperature; […]. On the technique in general: ELISA stands for enzyme-linked immunosorbent assay.

As usually defined, the IC50 is the midpoint of a concentration-inhibition curve. Turning to KKCH peptide, the IC50 was 413 µM.

These data come from PMC11277083, “A Natural Bioactive Peptide from Pinctada fucata Pearls Can Be Used as a Potential Inhibitor of the Interaction between SARS-CoV-2 and ACE2 against COVID-19” (International Journal of Molecular Sciences, 2024).
